Test system: sub p53-1 and sub p53-2 peptides
Assay: ELISA system for measuring the deacetylase activity (liquid and solid phase)
Assay type: biochemical, human
Details: 0 to 10 μg/ml; liquid and solid phases; depending on the concentration; FIGS. 11 and 12
Experimental: Two peptide substrates “Sub Ac p53-1” (SEQ ID NO: 17/Bio-STSRHKK(Ac)LMFKTE and “Sub Ac p53-2” (SEQ ID NO: 18/Bio-SHLKSKK (Ac) GQSTSR) in which an acetyl group was introduced into the ε amino group on the 373rd and 382nd lysine residues of human p53, were prepared by a peptide synthesizer. An amino acid in a peptide is shown by the one-letter code and “Bio” at the amino ends means biotin. K(Ac) indicates an acetylated lysine residue. Ninety percent or higher purity of the synthesized peptides was confirmed by HPLC. “Sub Ac p53-1” and “Sub Ac p53-2” were composed of amino acid residues 376 to 388 and 367 to 379, of human p53, respectively.
Two peptides substrate were dissolved in PBS to 10 μg/ml. 50 μl of each peptide solution were added to each well on a microtiter plate for ELISA, and sensitized at 4° C. overnight. […]
The synthesized peptide substrates and the recombinant deacetylase were reacted in the liquid phase, and the enzyme activity was measured by ELISA system using a microtiter plate. […] 100 μl of 1.5 N phosphate solution were added thereto to terminate the coloring reaction, and absorbance at 450 nm was measured using a microtiter plate reader. • Solid Phase Analysis System (Refer to FIG. 4) […]

recombinant HDAC1: recombinant deacetylase HDAC1/RPD3 (full length) purified from E. coli
deacetylase activities in sub p53-1 and sub p53-2 peptides: detected

Reference: patent publication US6884597B1, “Method for detecting acetyltransferase and deacetylase activities and method for screening inhibitors or enhancers of these enzymes” (Medical & Biological Laboratories, Co., Ltd., priority 1998, dated 2005)
